Assay results: the DeepSol protein solubility set

assay: soluble on expression in E. coli; label from the status in PepcDB or PDB records

| Sequence | soluble on expression in E. coli |
| --- | --- |
| MSLLIKNGTIVNDDAIFKSDVLVLDGRIVEIAPSIQPTPGLEVVDATDRLVIPGGIDPHTHMQLPFMGEIAKDDFHRGTEAAVAGGTTMIIDFVIPTKGESLLVAYDRWRGWADPKVVCDYGLSMAITSWGPEIAKEMEIVTGAEYGINSFKFFLAYAGVFMVRDEEFYQGMIQCAKLRALARVHAENGSVIAERCEHLLSSGITGPEGHTQSRPEELEAEATFRACTMASQANCPLYVVHVMSKGAAAAIAHHRKKGAVVFGEPIAAGLATDGSHYYNEDWLHAARYVMSPPLSRDPSTPSALMKLLAAGELHLTATDNCTFDCQQKSLGKDDFTKIPNGVNGVEDRMSVVWDKGVHAGIIDPMRFVAVTSTMAAKIFNCYPQKGRIAVGSDADIVIWNANATRTISKDTHHHAIDFNIFEGMQVHGVPEITISRGRTVWANGQLKTVQGSGQFIPLAPDSQIVFSAVDNRKKAMEPVKIDRIPYEPSALQTPDANANIVVKAPVRAAIPPGGASSIQF | not soluble |
| MKTMRKILEIDEERCNGCGLCVLDCAEGAIAIVDGKAKIVSDSFCDGLGACIGSCPQDALHIIEREAVPFDEEAAMEHVRSQGGTPEANHGHGHGAGTPHRHGQSAEHGGHGRIPGHGGCPGAAMRRFDSAESPAFAVAEGTVKGPGHWPLKIRLVPPTAPFLKGADVLVAADCAAAASPIFHSHFAAGKVVLIGCPKFDDTEAYAERLADILRVSGIASLTVLRMEVPCCRGLSAAAEKARVLSGTSLVLKEVIMTCAGGPAAPAPLSSL | soluble |
| MSLRDAKTWFTDTVLKDQNGRELRFYSDVLKDKVVMLNVIFTHCTDACPLITRKLREVREAMGPALAAQVTFVSISSDPLNDTPEALKAFAAKQGVDGPNWLFLTGDKANVDLVLGRIGQFLPSPEQHSTQLIAGDVAGKRWSKIRPDAPPAAIAQRMQLLTQPLAGREGHHHHHH | soluble |
| MAGLVDRVSGARLDPAAEAEIRYLEAMIARLEAGEEDPEDFRVFRLKNGIYGIRGRPEHHMIRIKLPVGRITPEGLRVLADVAERYAENRLAHVTTRQAVQLHHVHRRDVPKVLRAVNAVGLTTREACGHSIRAITCCPYAGVSPEEPFDVTPYAEAAYRYFLRHPVGQNLPRKFKIAFEGCAADHARTPIHDIGVVAALEGGKRGFRVYVGGGLGAAPMSAELLEAFTPEEDLLPTMLAIVRLFDRYGNRKVLTQARLKFLVKKWGIAAFREAVREERRLVKLTASGEDLEAWAPPPEPEPPRLPSPPKKPFSFAPGFDAWRRTNLFKQKQEGFYTVTVRLPLGDITPEGLRALAAIAETYAAEVRSAISQNLLLRFVPEEALGGLYEALLEAGLALPEAHTLLDITRCPGADTCNLAITRSRGLAQALEAHLATLPLAQDPGAKAIGVKISGCPNSCGQHHIADIGFYGSSRKVGEREVPHYVLLLGGRTREGEARFGQVVGRLPARRVPEAVERILKRYLEERQNGESFQAYLDRVGAASFKPLLQELQEVPPYEEAPEFYQDLGAEGEAFSVQLGRGECAV | soluble |
| LQVYTSDNQLIAEYGGKLSVPVEYNQIPPTFIHAFLAAEDSSFFEHSGISFKGLGRALSETVTGSNVQTGGSTITMQVAKNYYLSPERTLKRKLTEIFLARKIEQNLTKQEILSLYVNKIFLGKNAYGIAAAAKIYYNKTLDQLSIAEMAMISGLPKAPSKYNPVVNP | not soluble |
| MSYQPTSLTVASYNLRNANGSDSARGDGWGQRYPVIAQMVQYHDFDIFGTQECFLHQLKDMKEALPGYDYIGVGRDDGKDKGEHSAIFYRTDKFDIVEKGDFWLSETPDVPSKGWDAVLPRICSWGHFKCKDTGFEFLFFNLHMDHIGKKARVESAFLVQEKMKELGRGKNLPAILTGDFNVDQTHQSYDAFVSKGVLCDSYEKCDYRYALNGTFNNFDPNSFTESRIDHIFVSPSFHVKRYGVLTDTYRSVRENSKKEDVRDCPEEITIKAYEARTPSDHFPVKVELVFDLEHHHHHH | soluble |
| MSLNYVAEIDLLAEELAQELEIEGGETYGILAAHLRSLYGIHITRTEAAGGLIRHFDPAGKTLALSSYMAAPTRCFQLALQIAQLHAGATVDRVLAGAGFRNAEAAEICRIGLHNYFAAALILPYGQFHRAAQELRHDLELLAVRFGASLEQVAHRLSTLQRPGMKGVPIFFAKIDRAGNITKRHSATRLQFARFGAACPLWNIHQAFESSDRIVRQLAETPDGVRYLSIATQIEKAGAGFNTERPRYAIALGCEISHAQNFVYADTLDLGNAASFKPIGISCRVCERVDCVQRAVPPLKRKLHFDHLSRGALPYQIAEGHHHHHH | not soluble |
| MGSDKIHHHHHHNKESTTECQTIDFSTLFDGQPEKIPLKEWAKSIHFVQLETNDSILIGNIRATILHKDKILVHHNNLSLFDLSGKFICNIGSKGGGPTEYSGINNAWTDDEGIHIFDIDNKIKTYNWNGKWIKTEPIPESNIKEVFPLASGNNIKAGYIQNITGNEPHKIYLFKDSTILAKIPYGKSFQKGEMTMVFYNECYPFHADGRTFFKEMFNDTIFSIDNQYQPIPRWYIELGKYKIAEDARYTLTDPRKSVFDNAATLTPIGKWDNKLFFSARANKQNYLFYYDLKEKKSNSIQISYPENSFAIPEEHSFIPKCMSDDGKYLISYEIQENDENPVIILAEK | not soluble |
| MSSEERSRQPSTVSTFDLEPNPFEQSFASSKKALSLPGTISHPSLPKELSRNNSTSTITQHSQRSTHSLNSIPEENGNSTVTDNSNHNDVKKDSPSFLPGQQRPTIISPPILTPGGSKRLPPLLLSPSILYQANSTTNPSQNSHSVSVSNSNPSAIGVSSTSGSLYPNSSSPSGTSLIRQPRNSNVTTSNSGNGFPTNDSQMPGFLLNLSKSGLTPNESNIRTGLTPGILTQSYNYPVLPSINKNTITGSKNVNKSVTVNGSIENHPHVNIMHPTVNGTPLTPGLSSLLNLPSTGVLANPVFKSTPTTNTTDGTVNNSISNSNFSPNTSTKAAVKMDNPAEFNAIEHSAHNHKENENLTTQIENNDQFNNKTRKRKRRMSSTSSTSKASRKNSISRKNSAVTTAPAQKDDVENNKISNNVTLDENEEQERKRKEFLERNRVAASKFRKRKKEYIKKIENDLQFYESEYDDLTQVIGKLCGIIPSSSSNSQFNVNVSTPSSSSPPSTSLIALLESSISRSDYSSAMSVLSNMKQLICETNFYRRGGKNPRDDMDGQEDSFNKDTNVVKSENAGYPSVNSRPIILDKKYSLNSGANISKSNTTTNNVGNSAQNIINSCYSVTNPLVINANSDTHDTNKHDVLSTLPHNN | soluble |
| MAMHTWFECKIRYEKTMENGMQKKVTEPYLVDALSFTEAEARIIEEMTPFITGEFTVSDIKRANYSELFPSDEESADRWFKCKLIFITLDEKSGAEKKTSTQVLVQAADLRDAVKKLDEGMKGTMADYQIGMVSETPLMDVYPYSAGPNDKPEFDPSKA | not soluble |
| VEQELATKMLQIQSKRFYLDVKQNRRGRFIKVAEIGADGRRSQIYLALSTAAEFRDHLSSFSDYYASLGPPNTDNLPEDGKLKSEMMIKDYRRYYLDLKENARGRFLRVSQTITRGGPRSQIALPAQGMIEFRDALTDLLEEFGAN | soluble |
| MGSMSMNAEQTVAELIARSNRLGSDPKNTNYAGGNTSAKGTDTDPVTGQPVELLWVKGSGGDLGTLTENGLAVLRLDRMRALVDVYPGVEREDEMVAAFDYCLHGRGGAAPSIDTAMHGLVDAAHVDHLHPDSGIALATAADGEALTKQIFGDRVVWVPWRRPGFQLGLDIADIKRRNPQAIGTILGGHGITAWGSTSAEAEAHSLEIIETAERYIAENGLEHHHHHH | soluble |
| SNAMKWKKSLAGLSSYKPGKREEEVMAELGLTKITKLSSNENPLGTSKKVAAIQANSSVETEIYPDGWASSLRKEVADFYQLEEEELIFTAGVDELIELLTRVLLDTTTNTVMATPTFVQYRQNALIEGAEVREIPLLQDGEHDLEGMLNAIDEKTTIVWICNPNNPTGNYIELADIQAFLDRVPSDVLVVLDEAYIEYVTPQPEKHEKLVRTYKNLIITRTFSKIYGLASARVGYGIADKEIIRQLNIVRPPFNTTSIGQKLAIEAIKDQAFIGECRTSNANGIKQYEAFAKRFEKVKLYPANGNFVLIDLGIEAGTIFSYLEKNGYITRSGAALGFPTAVRITIGKEEDNSAVIALLEKLL | soluble |
| MSDPLHVTFVCTGNICRSPMAEKMFAQQLRHRGLGDAVRVTSAGTGNWHVGSCADERAAGVLRAHGYPTDHRAAQVGTEHLAADLLVALDRNHARLLRQLGVEAARVRMLRSFDPRSGTHALDVEDPYYGDHSDFEEVFAVIESALPGLHDWVDERLARNGPS | soluble |
| GTGAESTAERSARFERDALEFLDQMYSAALRMTRNPADAEDLVQETYAKAYASFHQFREGTNLKAWLYRILTNTFINSYRKKQREPQ | soluble |
| MYLCEEHFKEYFERKVARTIEKYKLASKDERILVAVSGGKDSAVTAYVLKKLGYKIECLHLNLGIGEYSEKSEIYAKKQCEFIGAPLNIIRVKELLGYGIGEVRTSRPTCSYCGLTKRYIMNKFAYDNGFDAVATGHNLDDEASFLMNNLLHWNTEYLAKGGPLLPGEGKFVKKIKPLYELTEREVVAYAIAVGLEYIVEECPYARGATTLDMKEVLNELEEKRPGTKFNFVRGFLRKKKLFEPEVKGKDLKECKICGMPASGEICSFCKFWKLGKPLTFKIK | not soluble |
| MQFSYVNPTMIHFGQGQIASIRRDIPKDHKVLVLYGGGSIKRNGVYDQVVEALSEHQWVEFSGVEPNPTKETLDKAVHIVKNQHIDFILAVGGGSVIDGSKYVAAAAFYEGDGWDILTGQHTVKQATPIGAILTLPATGSESNTGAVITKAETQDKLAFLSPAVQPRFAVLDPDVMKSLPERQLVNGLVDAWVHVCEQYLTLPTQAMVQEGYAEVLLRNLLALGADFVNRDNDAWRANLMWTANQALNGLIGTGVPQDWATHMIGHELTALWHVDHARSLAIVQPWLLRNQLKHKKAKLEQMGKNVFGLPQSDDLAEKTIAAIEAFYHQLNVATQFGEHGMAKEAAVDAVLQQLTAHGMHKLGEQGTIDLQESRKILENALY | not soluble |
| MTDSDNPRRVLLKLSGEAFGGGKVGIDTQVIRRIAEEIVPAVQQGVQVAIVVGGGNFFRGAELQQAGIDRSRGDYMGMLGTVMNCLALQDFLEQEGQATRVQTAITMGQVAEPYIPLKAIRHLEKGRVVIFGAGAGMPYFSTDTVSIQRSLEIHCDEVLMGKNGVDGVYTADPRKDENAKRFETLSYNRALVDNLAVMDASALSMARDNKKRIRVFGLEEPGNVTRALVGDEIGTLVSTAESRVAELEHHHHHH | soluble |
| MPFLPPLTPPTELYLGIQLPSPISILVNYLPVSQTPIETLRNLVYSCDINTLAIDEFMTWPSLLQPGSPFRPYFEVLVERGSIPAVYLEGVRQASNFVTVAQGLSVMTTVALSDPFACFATGLFLTCTGNHLDFLPISEKFWEMTPTLEAGHAVAEMVMYHISQLHTENARRWERSWRFVHLPSCVGQCTFHHGCRVCFFYWYAREMAIFY | soluble |
| MLVAPFASQLPFVEETLHSSYQALQWGKNIFAIAHKTLSARLLNTVFPTEERTQPLSPELQAWLKERYEALLQQDWQDAAAGFYPATLLFDAPWEEFLRFYPLLLLDLPQMWQRARSRQFQEFAHNVRLEDYPQYYRQNFHYQTDGYLSDTSANLYDIQVELLFGGTADAMRRRVIAPIAQQVVAHPPTPPLRILDVACGTGRTLKQLRYAFPGAVLFGLDLSPAYLRKANALLATQTGALPQLIQGNAESLPYVDSYFSAITCVFLFHELPAPVRQNVIHECARVLQPGGIFVICDSIQSLDSPEQRPMMENFANLFHEPFYRNYIEDDLNLRLEKAGLVVKEVQHHFMSKYWVAVKPSLEHHHHHH | not soluble |
